Laboratory results from US20060193849A1 (published 2006).

Molecular target: MUC-1 gene product, the membrane mucin glycoprotein (polymorphic epithelial mucin or PEM) (human, UniProt P15941 24-1255)
Test: flow cytometry equilibrium binding on MCF7 cells

MUC-1 gene product, the membrane mucin glycoprotein (polymorphic epithelial mucin or PEM), sequence (P15941 24-1255): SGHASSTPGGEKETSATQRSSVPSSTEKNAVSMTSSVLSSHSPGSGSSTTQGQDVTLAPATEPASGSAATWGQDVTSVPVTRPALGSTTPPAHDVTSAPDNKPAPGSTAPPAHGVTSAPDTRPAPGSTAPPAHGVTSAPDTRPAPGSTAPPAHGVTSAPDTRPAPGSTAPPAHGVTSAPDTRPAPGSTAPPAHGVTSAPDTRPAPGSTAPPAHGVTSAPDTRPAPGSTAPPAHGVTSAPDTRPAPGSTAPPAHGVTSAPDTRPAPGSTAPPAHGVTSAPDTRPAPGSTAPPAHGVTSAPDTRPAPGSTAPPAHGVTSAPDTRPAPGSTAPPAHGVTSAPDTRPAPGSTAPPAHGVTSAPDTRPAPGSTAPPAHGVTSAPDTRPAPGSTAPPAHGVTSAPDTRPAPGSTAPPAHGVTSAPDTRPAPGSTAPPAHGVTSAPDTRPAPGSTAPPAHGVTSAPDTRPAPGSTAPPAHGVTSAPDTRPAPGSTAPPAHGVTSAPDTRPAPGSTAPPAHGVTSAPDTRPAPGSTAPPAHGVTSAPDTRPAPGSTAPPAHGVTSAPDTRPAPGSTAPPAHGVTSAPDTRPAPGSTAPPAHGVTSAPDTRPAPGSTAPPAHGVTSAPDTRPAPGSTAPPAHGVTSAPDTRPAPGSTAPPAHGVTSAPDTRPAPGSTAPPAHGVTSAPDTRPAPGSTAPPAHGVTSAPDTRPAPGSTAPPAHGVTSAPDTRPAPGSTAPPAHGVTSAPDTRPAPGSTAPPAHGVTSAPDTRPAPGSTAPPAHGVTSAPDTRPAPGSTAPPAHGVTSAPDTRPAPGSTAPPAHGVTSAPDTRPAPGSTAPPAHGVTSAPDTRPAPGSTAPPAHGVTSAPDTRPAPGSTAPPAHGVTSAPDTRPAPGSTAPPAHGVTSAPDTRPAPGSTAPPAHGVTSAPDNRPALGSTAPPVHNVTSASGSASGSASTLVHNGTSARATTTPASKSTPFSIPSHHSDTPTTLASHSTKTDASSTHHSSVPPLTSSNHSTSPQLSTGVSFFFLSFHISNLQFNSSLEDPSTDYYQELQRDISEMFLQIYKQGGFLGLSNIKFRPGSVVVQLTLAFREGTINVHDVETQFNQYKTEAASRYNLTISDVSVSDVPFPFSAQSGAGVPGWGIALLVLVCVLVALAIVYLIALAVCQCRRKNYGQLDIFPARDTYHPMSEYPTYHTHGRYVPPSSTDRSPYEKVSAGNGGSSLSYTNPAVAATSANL

- Kd: 114 nM
B1: huHMFG1 wild-type scFv 4.10W (scFv)
scFv: QVQLVQSGAEVKKPGASVKVSCKASGYTFSAYWIEWVRQAPGKGLEWVGEILPGSNNSRYNEKFKGRVTVTRDTSTNTAYMELSSLRSEDTAVYYCARSYDFAWFAYWGQGTLVTVSSGGGGSGGGGSGGGGSDIQMTQSPSSLSASVGDRVTITCKSSQSLLYSSNQKIYLAWYQQKPGKAPKLLIYWASTRESGVPSRFSGSGSGTDFTFTISSLQPEDIATYYCQQYYRYPRTFGQGTKVEIKR
